According to patent US20140120095A1 (Boehringer Ingelheim, published 2014):
Positions count from the first letter of the chain named.

T1: cynomolgus DLL4 expressed on CHO cells (cynomolgus, UniProt Q9NR61 27-685 (human entry))
T1 construct: also called cDLL4; CHO-cDLL4
T1 chain: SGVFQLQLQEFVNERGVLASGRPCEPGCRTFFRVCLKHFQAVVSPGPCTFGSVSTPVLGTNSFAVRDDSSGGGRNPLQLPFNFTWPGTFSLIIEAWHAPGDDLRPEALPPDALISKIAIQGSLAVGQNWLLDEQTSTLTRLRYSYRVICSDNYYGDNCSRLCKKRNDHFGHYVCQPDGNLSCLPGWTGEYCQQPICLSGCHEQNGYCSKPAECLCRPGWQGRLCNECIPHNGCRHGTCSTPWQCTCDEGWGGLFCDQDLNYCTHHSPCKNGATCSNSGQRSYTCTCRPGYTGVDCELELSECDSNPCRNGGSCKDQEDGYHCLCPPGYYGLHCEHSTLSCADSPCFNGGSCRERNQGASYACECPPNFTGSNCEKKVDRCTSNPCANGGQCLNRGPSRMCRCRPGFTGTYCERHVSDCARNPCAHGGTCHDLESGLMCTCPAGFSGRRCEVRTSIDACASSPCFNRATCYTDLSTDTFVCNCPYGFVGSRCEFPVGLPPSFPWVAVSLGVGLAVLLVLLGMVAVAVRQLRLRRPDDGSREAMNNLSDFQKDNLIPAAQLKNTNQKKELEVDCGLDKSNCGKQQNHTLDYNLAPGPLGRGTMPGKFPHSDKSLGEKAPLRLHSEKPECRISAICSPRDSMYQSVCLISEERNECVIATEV

B1: DLLBII101G08 (VHH, not shown: small tags and cut ends)
VHH: EVQLVESGGGLVQAGGSLRLSCAASGRTFSSYAMAWFRQAPGKEREFVAAIRWSGGTAYYADSVQGRFTISRDNAKNTVYLQMNSLKPEDTAVYYCANRAADTRLGPYEYDYWGQGTQVTVSS
notes: parent VHH; also called 101G08 (wt); 101G8
B2: DLLBII129B05 (VHH, not shown: small tags and cut ends)
VHH: B1 VHH with F37Y, F47Y, A101P, G106A, Y112H
B3: DLLBII129D08 (VHH, not shown: small tags and cut ends)
VHH: B1 VHH with F37Y, F47Y, A101P, G106E, E109L
B4: DLLBII129E11 (VHH, not shown: small tags and cut ends)
VHH: B1 VHH with F37Y, F47Y, A101P, G106R, E109L
B5: DLLBII015 (VHH, not shown: small tags and cut ends)
VHH: EVQLVESGGGLVQPGGSLRLSCAASGFTIGSYDMSWVRRSPGKGPEWVSAINSGGGSTYYADYVKGRFTISRDNAKNTLYLQMNSLKPEDTAVYYCAADRYIWARQGEYWGAYAYDYWGQGTQVTVSS
B6: DLLBII133A09 (VHH, not shown: small tags and cut ends)
VHH: B5 VHH with I29F
B7: DLLBII136C07 (VHH, not shown: small tags and cut ends)
VHH: B5 VHH with I29F, A50S, A114E
B8: DLLBII133G05 (VHH, not shown: small tags and cut ends)
VHH: B5 VHH with I29F, A61T

Target: T1, cynomolgus DLL4 expressed on CHO cells
Assay: FACS; summary table, column taken as cDLL4

EC50 [nM]	Binder
11.2	B1
3.9	B2
3.8	B3
4.2	B4
5.1	B5
2.3	B6
3.5	B7
2.7	B8

Target: T2, mouse DLL4 expressed on CHO cells (mouse, UniProt Q9JI71 27-686)
T2 construct: whole, on cells; also called mDLL4; CHO-mDLL4
Assay: FACS on CHO-mDLL4 cells

T2 sequence (Q9JI71 27-686): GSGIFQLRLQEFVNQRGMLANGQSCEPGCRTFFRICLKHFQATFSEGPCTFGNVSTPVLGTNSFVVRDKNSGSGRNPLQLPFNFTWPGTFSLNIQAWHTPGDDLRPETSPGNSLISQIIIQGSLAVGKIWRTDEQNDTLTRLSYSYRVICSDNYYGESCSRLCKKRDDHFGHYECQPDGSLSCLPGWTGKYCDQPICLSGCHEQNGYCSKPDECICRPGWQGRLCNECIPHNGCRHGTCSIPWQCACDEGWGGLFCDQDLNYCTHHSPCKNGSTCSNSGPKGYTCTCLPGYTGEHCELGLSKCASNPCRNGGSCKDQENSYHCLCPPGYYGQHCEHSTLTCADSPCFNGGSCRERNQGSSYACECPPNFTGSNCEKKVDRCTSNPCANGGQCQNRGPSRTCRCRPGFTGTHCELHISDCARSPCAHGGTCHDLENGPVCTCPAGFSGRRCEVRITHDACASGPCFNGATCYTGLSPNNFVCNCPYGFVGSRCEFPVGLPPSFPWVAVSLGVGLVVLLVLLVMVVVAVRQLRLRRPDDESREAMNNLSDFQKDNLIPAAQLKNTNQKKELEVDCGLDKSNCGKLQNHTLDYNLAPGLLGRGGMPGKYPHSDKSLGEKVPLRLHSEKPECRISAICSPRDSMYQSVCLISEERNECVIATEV

EC50 [nM]	Binder
3.9	B2
3.7	B3
4.1	B4
7	B5
1.7	B6
8.3	B7
2.8	B8

Target: T3, human DLL4 expressed on cells (CHO-hDLL4; HEK293-hDLL4) (human, UniProt Q9NR61 27-685)
T3 construct: full length human DLL4 overexpressed on CHO cells (FMAT, FACS) or HEK293 cells (reporter assay)
Assay: FACS; summary table, column taken as hDLL4

EC50 [nM]	Binder
17.5	B1
9.7	B2
9.6	B3
10.4	B4
14.8	B5
7.2	B6
10.9	B7
8.5	B8

Target: T3, human DLL4 expressed on cells …
Assay: cell-based or functional assay

IC50, DLL4-mediated reporter assay [nM]	Binder
1940	B1
60	B2
77	B3
98	B4
18	B5
87	B6
226	B7
104	B8

Target: T2, mouse DLL4 expressed on CHO cells
Assay: competition FMAT CHO-mDLL4; summary table

IC50 [nM]	Binder
140	B1
14.4	B2
11	B3
12.3	B4
21.2	B5
18.6	B6
31.2	B7
12	B8

Target: T3, human DLL4 expressed on cells …
Assay: competition FMAT CHO-hDLL4; summary table

IC50 [nM]	Binder
69.3	B1
7.4	B2
7.8	B3
8.1	B4
5.7	B5
6.6	B6
8	B7
5.9	B8

Target: T3, human DLL4 expressed on cells …
Assay: FACS on CHO-hDLL4 cells

EC50 [nM]	Binder
17.5	B1
9.7	B2
9.6	B3
1.4	B4
14.8	B5
7.2	B6
10.9	B7
8.5	B8

Target: T1, cynomolgus DLL4 expressed on CHO cells
Assay: FACS on CHO-cDLL4 cells

EC50 [nM]	Binder
11.2	B1
3.9	B2
3.8	B3
4.2	B4
5.1	B5
2.3	B6
3.5	B7
2.7	B8

Target: T2, mouse DLL4 expressed on CHO cells
Assay: FACS; summary table, column taken as mDLL4

EC50 [nM]	Binder
3.9	B2
3.7	B3
4.1	B4
7	B5
1.7	B6
8.3	B7
2.8	B8

Target: T3, human DLL4 expressed on cells …
Assay: competition FMAT, labelled hNotch1-Fc on CHO-hDLL4 cells

IC50 [nM]	Binder
69.3	B1
7.4	B2
7.8	B3
8.1	B4
5.7	B5
6.6	B6
8	B7
5.9	B8

Target: T2, mouse DLL4 expressed on CHO cells
Assay: competition FMAT, labelled hNotch1-Fc on CHO-mDLL4 cells

IC50 [nM]	Binder
140	B1
14.4	B2
11	B3
12.3	B4
21.2	B5
18.6	B6
31.2	B7
12	B8

Target: T4, recombinant mouse DLL4 (C-terminally His-tagged extracellular domain, R&D Systems) (mouse, UniProt Q9JI71 27-532)
T4 construct: extracellular domain; also called rmDLL4; mDLL4
Assay: SPR (Biacore); summary table

T4 sequence (Q9JI71 27-532): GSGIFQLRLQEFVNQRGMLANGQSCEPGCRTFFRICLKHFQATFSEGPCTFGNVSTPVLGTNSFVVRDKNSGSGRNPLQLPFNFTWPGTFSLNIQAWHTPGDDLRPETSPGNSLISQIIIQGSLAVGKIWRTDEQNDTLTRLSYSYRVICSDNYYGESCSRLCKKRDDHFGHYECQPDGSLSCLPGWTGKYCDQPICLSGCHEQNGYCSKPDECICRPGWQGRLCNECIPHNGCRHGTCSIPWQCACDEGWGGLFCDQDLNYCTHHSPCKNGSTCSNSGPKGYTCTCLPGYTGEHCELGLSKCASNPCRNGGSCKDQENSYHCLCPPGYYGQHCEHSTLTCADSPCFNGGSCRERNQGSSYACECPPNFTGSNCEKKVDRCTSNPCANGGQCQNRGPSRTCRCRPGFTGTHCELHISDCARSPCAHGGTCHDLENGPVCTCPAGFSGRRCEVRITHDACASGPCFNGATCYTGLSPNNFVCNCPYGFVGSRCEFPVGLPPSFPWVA

Kd [nM]	Binder
60	B1
1.1	B2
0.8	B3
1.2	B4
4.3	B5
7.8	B6
2.6	B7
3.4	B8

Target: T5, recombinant human DLL4 (C-terminally His-tagged extracellular domain, R&D Systems) (human, UniProt Q9NR61 25-522, biotinylated in the competition ELISA)
T5 construct: also called rhDLL4; hDLL4
Assay: SPR (Biacore); summary table

Kd [nM]	Binder
48	B1
0.3	B2
0.4	B3
0.5	B4
1	B5
2.1	B6
0.6	B7
0.8	B8

Target: T5, recombinant human DLL4 (C-terminally …)
Assay: competition ELISA, biotinylated hDLL4 to coated hNotch1-Fc

IC50 [nM]	Binder
10	B1
0.9	B2
1.2	B3
1.3	B4
0.9	B5
1.5	B6
1.4	B7
2	B8

Target: T4, recombinant mouse DLL4 (C-terminally …)
Assay: SPR (Biacore), rmDLL4

Kd [nM]	koff [s⁻¹]	kon [M⁻¹ s⁻¹]	Binder
60	0.0056	94000	B1
1.1	0.00031	270000	B2
0.8	0.0002	270000	B3
1.2	0.00029	250000	B4
4.3	0.0015	350000	B5
7.8	0.0027	350000	B6
2.6	0.0013	500000	B7
3.4	0.0016	470000	B8

Target: T4, recombinant mouse DLL4 (C-terminally …)
Assay: binding ELISA on coated recombinant mouse DLL4 (Example 5.8, Example 7), OD 450 nm

EC50 (read off the curve) [nM]	Binder
~1	B5
~1	B6
~1	B7
~0.4	B8

Target: T5, recombinant human DLL4 (C-terminally …)
Assay: SPR (Biacore), rhDLL4
Experimental: Kinetic analysis to determine the affinity of the DII4-VHH interaction is performed by Surface Plasmon Resonance (SPR) on a Biacore T100 instrument. […] Purified VHHs or Fab fragment are injected for 2 minutes at different concentrations (between 10 and 300 nM) and allowed to dissociate for 20 min at a flow rate of 45 μl/min. Between sample injections, the surfaces are regenerated with 10 mM glycine pH1.5 and 100 mM HCl. HBS-N (Hepes buffer pH7.4) is used as running buffer. If possible, data are evaluated by fitting a 1:1 interaction model (Langmuir binding) onto the binding curves. The affinity constant KD is calculated from resulting association and dissociation rate constants (kₐ) and […].

Kd [nM]	koff [s⁻¹]	kon [M⁻¹ s⁻¹]	Binder
48	0.0023	48000	B1
0.3	7.9e-05	230000	B2
0.4	6.4e-05	180000	B3
0.5	9e-05	190000	B4
1	0.00047	450000	B5
2.1	0.0009	440000	B6
0.6	0.00039	620000	B7
0.8	0.00047	590000	B8

Target: T5, recombinant human DLL4 (C-terminally …)
Assay: competition ELISA hDLL4/hNotch1-Fc; summary table

IC50 [nM]	Binder
10	B1
0.9	B2
1.2	B3
1.3	B4
0.9	B5
1.5	B6
1.4	B7
2	B8
